Data from paper PMC11490872, “Drug-resistant menin variants retain high binding affinity and interactions with MLL1” (The Journal of Biological Chemistry, 2024).
Read-outs that look alike come from different tables or passages of the source.

What was measured:
Type in all cases: binding
[1] = biological target: T1, menin^G331R bound to FLSN-MLL1^4-43 (Homo sapiens, UniProt O00255, G326R); assay: FP competition, displacement of FLSN-MLL1^4-43 from menin^G331R
T1 construct: The gene encoding full-length human menin was cloned into a pET32a expression vector; thioredoxin-His6 (cleaved yes); made in house; host or cells: E. coli BL21(DE3); probe peptide from GenScript
T1 sequence (O00255 1-610 G326R): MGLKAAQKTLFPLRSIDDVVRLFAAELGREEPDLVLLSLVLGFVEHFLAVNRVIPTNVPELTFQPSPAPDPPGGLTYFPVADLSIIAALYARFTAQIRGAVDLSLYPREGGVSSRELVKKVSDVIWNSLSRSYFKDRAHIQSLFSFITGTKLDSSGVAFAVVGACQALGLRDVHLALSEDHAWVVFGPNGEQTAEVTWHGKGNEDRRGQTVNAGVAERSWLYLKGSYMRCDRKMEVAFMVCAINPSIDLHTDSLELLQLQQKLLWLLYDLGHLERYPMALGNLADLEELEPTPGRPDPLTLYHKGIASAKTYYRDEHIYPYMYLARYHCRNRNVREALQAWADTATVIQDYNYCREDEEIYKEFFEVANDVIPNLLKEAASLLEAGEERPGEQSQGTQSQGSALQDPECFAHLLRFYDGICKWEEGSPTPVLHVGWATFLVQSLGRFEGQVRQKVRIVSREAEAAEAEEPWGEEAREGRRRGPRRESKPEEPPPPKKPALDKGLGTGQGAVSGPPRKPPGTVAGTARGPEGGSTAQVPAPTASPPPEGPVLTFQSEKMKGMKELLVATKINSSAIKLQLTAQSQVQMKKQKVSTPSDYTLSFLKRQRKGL
Method: (§1) FP competition experiments used FLSN-MLL1^4-43 at 4 nM and menin at 4 nM against varying concentrations of unlabeled MLL1 peptides in FP buffer for IC50 determination. Protein-peptide complexes were incubated for 1 h before unlabeled peptide competitors were added to ensure complete binding. Unlabeled peptide competitors were incubated with the protein-peptide complexes for 3 h before measurement using the PHERAstar microplate reader ([25]). Experiments with Revumenib were run with the same steps and conditions but used 5% DMSO in the final solution. Kd and IC50 values were calculated using GraphPad Prism 10 by plotting mP values measured for each protein/MLL1 peptide or Revumenib as a function of protein/MLL1 peptide (or Revumenib) concentration ([25]). All FP binding and competition experiments were run in triplicate.

[2] = biological target: T2, menin^M327I bound to FLSN-MLL1^4-43 (Homo sapiens, UniProt O00255, M322I); assay: FP competition, displacement of FLSN-MLL1^4-43 from menin^M327I
T2 construct: The gene encoding full-length human menin was cloned into a pET32a expression vector; thioredoxin-His6 (cleaved yes); made in house; host or cells: E. coli BL21(DE3); probe peptide from GenScript
T2 sequence (O00255 1-610 M322I): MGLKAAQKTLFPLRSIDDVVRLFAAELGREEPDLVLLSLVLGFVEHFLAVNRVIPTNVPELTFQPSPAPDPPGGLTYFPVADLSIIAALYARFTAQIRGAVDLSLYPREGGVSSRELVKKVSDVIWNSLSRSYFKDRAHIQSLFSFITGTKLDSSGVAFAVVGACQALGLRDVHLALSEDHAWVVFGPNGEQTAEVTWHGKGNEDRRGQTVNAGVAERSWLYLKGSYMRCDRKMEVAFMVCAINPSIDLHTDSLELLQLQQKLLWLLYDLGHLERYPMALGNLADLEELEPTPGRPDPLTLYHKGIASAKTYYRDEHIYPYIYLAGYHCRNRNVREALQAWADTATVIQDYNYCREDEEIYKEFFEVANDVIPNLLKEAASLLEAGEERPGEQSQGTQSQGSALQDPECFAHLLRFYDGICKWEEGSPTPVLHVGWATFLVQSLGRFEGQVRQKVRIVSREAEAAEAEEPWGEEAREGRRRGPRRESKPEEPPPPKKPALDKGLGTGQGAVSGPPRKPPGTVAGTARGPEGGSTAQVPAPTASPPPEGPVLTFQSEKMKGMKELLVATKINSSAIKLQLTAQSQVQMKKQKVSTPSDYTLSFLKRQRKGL
Method: as §1

[3] = biological target: T3, menin^G331D-FLSN-MLL1^4-43 (Homo sapiens, UniProt O00255, G326D); assay: FP competition, displacement of FLSN-MLL1^4-43 from menin^G331D
T3 construct: The gene encoding full-length human menin was cloned into a pET32a expression vector; thioredoxin-His6 (cleaved yes); made in house; host or cells: E. coli BL21(DE3); probe peptide from GenScript
T3 sequence (O00255 1-610 G326D): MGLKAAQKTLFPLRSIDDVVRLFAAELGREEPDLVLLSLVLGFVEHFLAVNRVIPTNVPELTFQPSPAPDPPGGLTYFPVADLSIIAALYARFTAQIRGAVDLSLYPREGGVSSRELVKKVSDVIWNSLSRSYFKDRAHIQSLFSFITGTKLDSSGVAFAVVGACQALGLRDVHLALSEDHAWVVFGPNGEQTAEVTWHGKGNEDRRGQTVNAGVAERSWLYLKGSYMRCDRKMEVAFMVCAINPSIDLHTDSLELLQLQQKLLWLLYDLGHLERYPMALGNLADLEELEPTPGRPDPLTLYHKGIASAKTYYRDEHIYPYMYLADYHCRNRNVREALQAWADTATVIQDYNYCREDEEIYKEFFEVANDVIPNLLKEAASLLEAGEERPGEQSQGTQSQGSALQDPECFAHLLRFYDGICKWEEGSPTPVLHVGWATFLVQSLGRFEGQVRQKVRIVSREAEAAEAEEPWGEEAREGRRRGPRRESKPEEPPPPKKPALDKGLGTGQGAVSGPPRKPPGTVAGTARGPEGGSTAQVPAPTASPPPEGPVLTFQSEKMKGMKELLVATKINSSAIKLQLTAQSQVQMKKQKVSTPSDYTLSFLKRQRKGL
Method: To better understand the mechanism of MLL1 binding with menin mutants, we performed FP competition experiments using FLSN-MLL1^4-43 as a fluorescent probe for competitive displacement by MLL1 peptides ([25]). First, we tested competition with MLL1^160 and found very similar IC50 values for wild-type menin and the three mutants M327I, T349M, and G331R, ranging between 4.1 and 8 nM (Fig. 3, A and B). […] We have hypothesized that the lack of competition with MLL1 for the menin^G331D mutant might result from a much slower dissociation rate of the menin^G331D–MLL1 complex, and to evaluate this we performed time-dependent competition experiments with MLL1^160 and MLL1^46. Standard conditions in the FP assay include 3 h incubations of the menin-FLSN-MLL1^4-43 complex with competitors.
as §1

[4] = FP competition with MLL1 fragments, 3 h incubation, N = 3, Fig. 3B, read-out: G331R IC50
[5] = FP competition with MLL1 fragments, 3 h incubation, N = 3, Fig. 3B, read-out: M327I IC50
[6] = FP competition with MLL1 fragments, 3 h incubation, N = 3, Fig. 3B, read-out: G331D IC50
[7] = time-dependent competition, 3 h, Fig. 3D, read-out: 3h IC50
[8] = time-dependent competition, 24 h, Fig. 3D, read-out: 24h IC50
[9] = time-dependent competition, 48 h, Fig. 3D, read-out: 48h IC50
[10] = time-dependent competition, 72 h, Fig. 3D, read-out: 72h IC50

Molecule	IC50 ([1]; FP competition, 5% DMSO, 3 h, N = 3, Fig. 4A, read-out: IC50 (nM), menin variant G331R) [nM]	reduction of activity against G331R ([1]; versus wild-type IC50) [fold]	IC50 ([2]; FP competition, 5% DMSO, 3 h, N = 3, Fig. 4A, read-out: IC50 (nM), menin variant M327I) [nM]	activity for the G331D variant ([3]; FP competition, 5% DMSO)	IC50 [1, 4] [nM]	IC50 [2, 5] [nM]	IC50 [3, 6] [nM]	IC50 [3, 7] [nM]	IC50 [3, 8] [nM]	IC50 [3, 9] [nM]	IC50 [3, 10] [nM]	IC50 ([3]; 24 to 72 h incubations, read-out: IC50 values, range over time points) [nM]
CCN(C(=O)c1cc(F)ccc1Oc1cncnc1N1CC2(CCN(C[C@H]3CC[C@H](NS(=O)(=O)CC)CC3)CC2)C1)C(C)C [Revumenib, reference compound]	30 ± 2.5	5	535 ± 37	no activity	–	–	–	–	–	–	–	–
MLL1^46: recombinant MLL1 fragment spanning amino acids 1–46, containing MBM1 and MBM2 (MAHSARWRFPARPGTTGGGGGGGRRGLGGAPRQRVPALLLPPGPPV; The printed 'Cys2' is Cys5 in the entry (peptide S4-A5-R6); Trx-His6 tag cl)	–	–	–	–	3.1 ± 0.7	1.7 ± 0.7	> 200	> 200	0.87 ± 0.8	1.1 ± 0.6	1 ± 0.2	–
MLL1^160: N-terminal 160 amino acids of human MLL1, Cys2 mutated to alanine, recombinant (protein, The printed 'Cys2' is the single N-terminal cysteine, Cys5 in the entry (peptide S4-A5-R6); Trx-His6 tag cleaved) MAHSARWRFPARPGTTGGGGGGGRRGLGGAPRQRVPALLLPPGPPVGGGGPGAPPSPPAVAAAAAAAGSSGAGVPGGAAAASAASSSSASSSSSSSSSASSGPALLRVGPGFDAALQVSAAIGTNLRRFRAVFGESGGGGGSGEDEQFLGFGSDEEVRVR	–	–	–	–	8 ± 0.5	5.1 ± 0.2	> 200	> 200	4.73 ± 0.8	10.9 ± 6.2	7.9 ± 0.5	4.7 to 10.9
